Measured values from the nanobody polyreactivity screen of Harvey et al. (2022).

Experiment: yeast display, Sf9 membrane polyspecificity reagent, FACS + sequencing; frameworks hold sequencing errors
Summary of the method: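 A nanobody's polyreactivity label depends on the gate it was sorted from. Yeast display cells were stained with 10% biotinylated, detergent-solubilized Sf9 membrane reagent for 1 hour at 4 °C, enriched on streptavidin microbeads and sorted by FACS. The low and high (top ~1%) gates were set on anti-HA fluorescence for expression and streptavidin fluorescence for reagent binding.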
In the case of “QVQLVESGGGLVQAGGSLRLSCAASGRIFGAYAMGWSRQAPGKERELVAAITSRGGNTYYADSVKGRFTISRDNAKNTVYLQMNSVKPEDTAVYYCAARHDKRRQYYVGQSAFDYWGQGTQVTVSS”, the “polyreactivity (PSR sort gate)” value was “low polyreactivity”. With “QVQLVESGGGLVQAGGSLRLSCAASGTTFAGNAMGWYRQAPGKERELVAAITFSGGRTDYADSVKGCFTISRDNAKNTVYLQMNSLKPEDTAVYYCAAPADDTVHYQNYYWGQGTQVTVSS” the “polyreactivity (PSR sort gate)” value was “low polyreactivity”. In the case of “QVQLVESGGGIVQAGGSLRLSCAASGFIFRYYAMGWYRHAPGKESELVATITRSGGSTYYADSVKGRFTISRDNAKNTVYLQMNSLKPEDTAVYYCAADIYWYRGYGYWGQGTQVTVSS”, the “polyreactivity (PSR sort gate)” value was “high polyreactivity”. With “QVQLVESGGGLVQAGGSLRLSCAASGRTFALYAMGWYRQAPGKERELVATITFIGDSTYYADSVKGRFTISRDNAKNTVYLQMNCLKPVDTAVYYCNATYGPYYPGIVTYIWFDHWGQGSQVTVSS” the “polyreactivity (PSR sort gate)” value was “low polyreactivity”. With “QVQLVESGGGLVQAGGSLRLSCAASGNIFVPNAMGWYRQAPGKERELVAAIRRGGSTNYADSVKGRFTISRDNAKNTVYLQMNSLKPEDTAVYYCAAYYTYLYHYGTFKIYNYWGQGTQVTVSS” the “polyreactivity (PSR sort gate)” value was “low polyreactivity”. In the case of “QVQLVESGGGLVQSGGSLRLSCAASVRIFGPYVMGWYRQAPGKERELVAAISTSGTSTYDADSVKGRFTISRDNAKNTVYLQMNSLKPEDTAVYYCAKRSGALHRLMDYWGQGTQVTVSS”, the “polyreactivity (PSR sort gate)” value was “low polyreactivity”. With “QVHLVESGGGLVQAGGSLRLSCAASGFTFYKYVMGWYRQAPGKERELVAAITTSGGSTYYADSVKGRFTISRDNAKNTVYLQMNSLKPEDTAVYYCNARSLHTSEGDYWGQGTQVTVSS” the “polyreactivity (PSR sort gate)” value was “low polyreactivity”. With “QVQLVESGGGLVQAGGSLRLSCAASGIIFSYNAMGWYRQAPGKERELVAAITRTGSTNYADSVKGRFTISRDNAKNTVYLQMNSLKPEDTAVYYCAAGWGYGRYRHVGYRMDYWGQGTQVTVSS” the “polyreactivity (PSR sort gate)” value was “high polyreactivity”. In the case of “QVQLVESGGGLVQAGGSLRLSCAASGSIFFRYAMGWYRQAPGKERELVAGITYSSGSSTYADSVKGRFTISRHNAKNTVYLQMNSLKPEDTAVYYCAAAYRFPGNRYDYWGQGTQVTVSS”, the “polyreactivity (PSR sort gate)” value was “low polyreactivity”. In the case of “QVHLVESGGGLVQAGGSLRLSCAASGSIFAWYGMGWYRQAPGKERELVAAISTAGSTNYADSVKGRFTISRDNAKNTVYLQMNSLKPEDTAVYYCAADWGGLWFWYEYWGQCTQVTVSS”, the “polyreactivity (PSR sort gate)” value was “low polyreactivity”. For “QVQLVESGGGLVQAGGSLRLSCAASGITFTFNAKGWYRQAPGKERELVAAISSTTSTIYADSVKRRFTISRDNAKNTVYLQMNRLKPEDTAVYYCAAVEFELLGDYWRQGTQVTVSS”, the “polyreactivity (PSR sort gate)” value was “low polyreactivity”. For “QVQLVESGGGLVQAGGSLRLSCAASGSISGYNAMGWYRQAPGQERELVAAIYRSDGTDYADSVKGRFTISRDNAKNTVYLQMNSLNPEDTAVYYCNADKWSVVGYVRGFYRDDYWGQGTQVTVSS”, the “polyreactivity (PSR sort gate)” value was “low polyreactivity”. In the case of “QVQLVESGGGLVQAGGSLSLSCAASGRIFYGYAMGWYRLAPGKERELVAAIRTSGGSTYYADSVKGRFTISRDNAKNTVYLQMNSLKPEDTAVYYCNAGIVPRNRYYTPYNYWGQGTQVTVSS”, the “polyreactivity (PSR sort gate)” value was “low polyreactivity”. In the case of “QVQLVESGGGLVQAGGSLRLSCAASGGTFGQYAMGWYRQAPGKERELVAAITSSGGRTYYADSVKGRFTISRDNAKNTVYLQMNSLKPEDTAVYYCAADVQSRYVGEGDYWGQGTQVTVSS”, the “polyreactivity (PSR sort gate)” value was “high polyreactivity”. In the case of “QVQLVESGGGLVQAGGSLRLSCAASGSIFPGYTMGWYRQAPGKERELVAAISRRGGSTYYADSVKGRITISRDNAKNSVYLQMNSLKPEDTAVYYCAKVPDYRFEYWGQGTQVTVSS”, the “polyreactivity (PSR sort gate)” value was “high polyreactivity”. For “QVQLVESGGGLVQAGGSLRLSCAASGRIFTPYAMGWYRQARGKEREVVAVIRDGSTYYADSVKGSFTISRDNAKNTVYLQMNSLKPEDTAVYYCRYDIWVWWSGAYDYWGQGTQVTVSS”, the “polyreactivity (PSR sort gate)” value was “low polyreactivity”. For “QVQLVESGGGLVQAGGSLSLSCAASGSNFVKNAMGWYRPAPGKERELVATISTGGSTYYADSVKGRFTISRDNAKNTVYLQMNSLKPEDTAVYYCATDFYPRFLLRSYRPYYYWGQGTQVTLSS”, the “polyreactivity (PSR sort gate)” value was “low polyreactivity”. In the case of “QVQLVESGGGLVQAGGSLRLSCAQSGFTKSTYTMGWYRQAPGKESELVAAIRRSGDSTYYGDSVKGRFTISRDHAKNTVYLQMKRLKPEDTAVYYSNAVRYRFERYDYWGQGTQVTVSS”, the “polyreactivity (PSR sort gate)” value was “high polyreactivity”. For “QVQLESGGGLVQAGGSLRLSCAASGITFQLYDMGWYRQAPGKERELVAAINSSGGSTYYADSVKGRFTISRDNAKNTVYLQMNSLKPEDTAVYYCNVGFAPVTNDQPVSTEYDYWGQGTQVTVSS”, the “polyreactivity (PSR sort gate)” value was “low polyreactivity”. In the case of “QVQLVESGGGLVQAGGSLRLSCAASGFIFRYYAMGWLRQAPGKERELVAAISWSGGNTYYADSVKGRFTISRDNAKNTVYLQMNSLKPEDTAVYYCAARVARISVPYDYWGQGTQVTVSS”, the “polyreactivity (PSR sort gate)” value was “low polyreactivity”. With “QVQLVESGGGLVQAGGSLRLSCAASGRTSDVYAMGWYRQAPGKERALVAAISSGGSTSYADSVKGRFTISRDNAKNTVNLQMNSLKPEDTAVYYCAADSSGQSRFGYWGQGTQVTVSS” the “polyreactivity (PSR sort gate)” value was “low polyreactivity”. With “QVQLVESGGGLVQAGGSLRLSCAASGSTFAINAMGWYRQAPGKERELVAAISSSGSTNYADSVKGRFTISRDNAKNTVYLQMNSLIPEDTAVYYCAADRVWGTPQAYVPSQFDYWGQGTQVTVSS” the “polyreactivity (PSR sort gate)” value was “low polyreactivity”. In the case of “QDQHVESGGGLVQAGGSLRLSCAASGSTFDAYAMGWYRQAPGKERELVAAISWSDTTTYYADSVKGRFTISRDNAKNTVYLQMNSLKPEDTAVYYCADEYYFTEGSYTSDYWGQGTQVTVSS”, the “polyreactivity (PSR sort gate)” value was “high polyreactivity”. In the case of “QVQLVESGGGLVQAGGSLRLSCAASGIIFRYYDMGWYRQAPGKERELVARITSRGGTYYADSVKGRFTISRDNATNTVYLKMNSLKPEDTAVYYCAASYLLTHGYAYNYWGQGTQVTVSS”, the “polyreactivity (PSR sort gate)” value was “high polyreactivity”. In the case of “QVQLVESGGGLFQAGGSLRLSCAASGSTLVKNAMGWYRQAPGKERELVAAIDYNDDITYYADSVKGRFTISRDTAKNTVYLQMNSLKPEDTAVYYCAAEPYAGPELDYWGQGTQVTVSS”, the “polyreactivity (PSR sort gate)” value was “high polyreactivity”. For “QVQLVESGGGLVQAGGSLRLSCAASGSILDLNAMGWYRQAPGKERELVAAISYSGDSTYYADSVKGRFTISRDNAKNTVYLQMNSLKPEDTAVYYCNAASFSDQGTLNHFYDWGQGTQVTVSS”, the “polyreactivity (PSR sort gate)” value was “low polyreactivity”. In the case of “QVQLVESGGGVVQAGGSLRLSCAASGYIYLVYAMGWYRQATGKETELVAAISSGGSTYYADSVKGRFTISRDNAKNTVYLQMNSLKPEDTSVYYCATAGLALYAFRDDYWGQGTQVTVSS”, the “polyreactivity (PSR sort gate)” value was “low polyreactivity”. For “QVQLVESGGGLVQAGGSLRLSCAASGRTFRVYTMGWYRQAPGKERELVAAISSRGGSTYYADSVKGRFTISRDNAKNTVYLQMYSLKPEDTAVYYCAASKFRSGGYDYWGQGTQVTVSS”, the “polyreactivity (PSR sort gate)” value was “high polyreactivity”. In the case of “QVQLVQTGGGLVQAGGSLRLSCAASGRIFLSYTRGWYSQAPGKERELVATIDSRVSTNYADSVKGRFTISRDNAKNTVYLQMNSLKPEDTAVYYCNADGFYSSHGYDYCGQGTQVTVSS”, the “polyreactivity (PSR sort gate)” value was “low polyreactivity”. In the case of “QVQLVESGGGLVQAGGRLRLSCAASGRIFDYNAMGWNRQAPWKERELVAAIRTSGGSTYYADSVKGRFTISRDNAKNTVYLPMISLKPEDNAVYYCAATSRRYRVRYDSWGQGTQVTVSS”, the “polyreactivity (PSR sort gate)” value was “high polyreactivity”. With “QVQLVESGAGLVQAGGSLRLSCAASVRIFFYGMGWYIQAPGKQMELVATITSVSNTYYADSVKGRFTISRDNAKNTVYLQMNSLKPEDTAVYYCAARQDRYRYRYGYWGHGTQVTVSS” the “polyreactivity (PSR sort gate)” value was “high polyreactivity”. With “QVQLVESGGGLVQAGGSLRLSCAASGRIIGFNAMGWYIQAPAKERELVASIRTTGGSTRYADSVKWRFTISRDNATNTVYLQMNSLKPEDTAVYYCADRWCKTLWQYNYWGQGTQVTVSS” the “polyreactivity (PSR sort gate)” value was “high polyreactivity”. In the case of “QVQLVESGGGLVQAGGSLRLSCAASGRIFLFYAMGWYRQAPGKERELVAAISSTDDTYYADSVKGRFTISRDNAKNTVYLQMNSLKPEDTAVYYCAAYSIISQSEMYYWGQGTQVTVSS”, the “polyreactivity (PSR sort gate)” value was “low polyreactivity”. With “QVQLVESGGGLVQAGGSLRLSCAASGRTSLGYAMGWYRQAPGKERELVAAISGGTTYYADSVKGRCTISRDNAKNPVYLQMNSLKPEDTAVYYCNAVYVWFSGAPRRYTKRYYWGQGTQVTVSS” the “polyreactivity (PSR sort gate)” value was “high polyreactivity”. In the case of “QVQLVESGGGLVQAGGSLRLSCAASGSTFLWNAMGWYRPAPGKERELVAAISYSGGSTYYADSVKGRFTISRDNAKNTVYLQMNSLKPEVTAVYYCAKEWFYDPYPPGYDYWGQGTQVTVSS”, the “polyreactivity (PSR sort gate)” value was “low polyreactivity”. With “QVQLVESGGGLVQAGVSLRLSCAASGRTFPRYAMGWYRQAPGKERELVASISYSGGSTYYADSVKVRFTISRDTAKNTVYLQLNSLKPEDTAVYYCARRGRTSFKYYYWGQGTQVTVSS” the “polyreactivity (PSR sort gate)” value was “high polyreactivity”. In the case of “QVQLVESGGGLVQSGGSLRLSCAYSGRTFYRNTMGWYRHAPGKEREFVAAISATAGRTYYADSVKWRFTISRDNAKNTVYLQMNSLKPEDTAVYYCAAVPLRNRWANSWPALDYWGQGTLVTVSS”, the “polyreactivity (PSR sort gate)” value was “high polyreactivity”. With “QVQLVESGGGLVQAGGSLRLICAASGSTLKYYAMGWYRQAPGKERELVARITRSSGSTYYADSVKGRFTISRDNAKNTVYLQMNSLKPEDTAVYYCNAYGRFGLYDYWGQGTQVTVSS” the “polyreactivity (PSR sort gate)” value was “high polyreactivity”. With “QVQLVESGGGLVQAGGSLRLSCASSGRNFYSYVMGWYRQAPGKERELVAAITRSGGTTYYADSVKGRITISRDNAKNTVYLEMYSLKPEDTAVYYCAAYVGGIRYYSWGQGTQVIVSS” the “polyreactivity (PSR sort gate)” value was “high polyreactivity”. In the case of “QVQLVESGGGLVQAGGSLRLSCAASGFTFRGNAMGWYRQAPGKERELVATISRGGNTNYADSVKGRFTISRDNAKNTVYLLMNSLKPEDTAVYYFAAVSYIRSKVSYNYWGNGTQVTVSS”, the “polyreactivity (PSR sort gate)” value was “low polyreactivity”. With “QVQLVESGGGLVQAGGSLRLSCAASGIIFGEYPMGWYRQAPGKERELVAAISWSGGSTYYADSVKGRFTISRDNAKNTVYLQMNSLKPEDTAVYYCNPLPDIVIGGIIGYDYWGQGTQVTVSS” the “polyreactivity (PSR sort gate)” value was “high polyreactivity”. For “QVQLVESGGGLVQAGGSLRLSCAASGSIFAWYAMGWYRQAPGKERELVAAISYRGGRTYYADSVKGRFTISRDNAKNTVYLQMNSLKPEDTAVYYCATDANRGYPSYDYWGQGTQVTVSS”, the “polyreactivity (PSR sort gate)” value was “high polyreactivity”. In the case of “QVQLVESGGGLVQAGGSLRLSCAASGRTFQRNAMGWYIQAPGKERELVATITTNGGSTYYADSVKGRFTISRDNAKNTVYLQMNSLKPEDTAVYYCAAPFNPRVRTLRSVRMDYWGQGTQVTVSS”, the “polyreactivity (PSR sort gate)” value was “low polyreactivity”.
